{"source": "paper PMC8998557", "about": "“A Novel Family of Winged-Helix Single-Stranded DNA-Binding Proteins from Archaea”", "binders": {"B1": {"name": "D30 (dsDNA)", "DNA 1": "TTTCTACCCTTTGGTGCTAATGCCCATACT", "DNA 2": "AGTATGGGCATTAGCACCAAAGGGTAGAAA"}}, "key": {"[1]": {"target": "T1, Sul7s D36A (Sulfolobus islandicus Rey15A, UniProt F0NBY5 1-59, D36A)", "T1 sequence": "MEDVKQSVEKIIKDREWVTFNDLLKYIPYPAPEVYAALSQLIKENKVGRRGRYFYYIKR", "assay": "BLI; text calls decrease marginal, in conflict with table value; BLI: 50 mM Tris-Cl pH 7.5, 100 mM NaCl, 1 mM EDTA, 0.02% Tween-20, 30 C; NMR: 20 mM potassium phosphate pH 7.0, 30 mM NaCl, 0.02% NaN3, 298 K", "details": "protein: recombinant; tags: untagged; label: 5'-biotin"}, "[2]": {"target": "T2, Sul7s R15A (Sulfolobus islandicus Rey15A, UniProt F0NBY5 1-59, R15A)", "T2 sequence": "T1 sequence with R15A, A36D", "assay": "BLI; BLI: 50 mM Tris-Cl pH 7.5, 100 mM NaCl, 1 mM EDTA, 0.02% Tween-20, 30 C; NMR: 20 mM potassium phosphate pH 7.0, 30 mM NaCl, 0.02% NaN3, 298 K", "details": "protein: recombinant; tags: untagged; label: 5'-biotin"}, "[3]": {"target": "T3, Sul7s D3A (Sulfolobus islandicus Rey15A, UniProt F0NBY5 1-59, D3A)", "T3 sequence": "T1 sequence with D3A, A36D", "assay": "BLI; BLI: 50 mM Tris-Cl pH 7.5, 100 mM NaCl, 1 mM EDTA, 0.02% Tween-20, 30 C; NMR: 20 mM potassium phosphate pH 7.0, 30 mM NaCl, 0.02% NaN3, 298 K", "details": "protein: recombinant; tags: untagged; label: 5'-biotin"}, "[4]": {"target": "T4, Sul7s N21A (Sulfolobus islandicus Rey15A, UniProt F0NBY5 1-59, N21A)", "T4 sequence": "T1 sequence with N21A, A36D", "assay": "BLI; BLI: 50 mM Tris-Cl pH 7.5, 100 mM NaCl, 1 mM EDTA, 0.02% Tween-20, 30 C; NMR: 20 mM potassium phosphate pH 7.0, 30 mM NaCl, 0.02% NaN3, 298 K", "details": "protein: recombinant; tags: untagged; label: 5'-biotin"}, "[5]": {"target": "T5, Sul7s E33A (Sulfolobus islandicus Rey15A, UniProt F0NBY5 1-59, E33A)", "T5 sequence": "T1 sequence with E33A, A36D", "assay": "BLI; BLI: 50 mM Tris-Cl pH 7.5, 100 mM NaCl, 1 mM EDTA, 0.02% Tween-20, 30 C; NMR: 20 mM potassium phosphate pH 7.0, 30 mM NaCl, 0.02% NaN3, 298 K", "details": "protein: recombinant; tags: untagged; label: 5'-biotin"}, "[6]": {"target": "T6, Sul7s (Sulfolobus islandicus Rey15A, UniProt F0NBY5 1-59)", "T6 sequence": "T1 sequence with A36D", "assay": "BLI; BLI: 50 mM Tris-Cl pH 7.5, 100 mM NaCl, 1 mM EDTA, 0.02% Tween-20, 30 C; NMR: 20 mM potassium phosphate pH 7.0, 30 mM NaCl, 0.02% NaN3, 298 K", "details": "protein: recombinant, tags: untagged"}, "[7]": {"target": "T7, Sul7s Y56A (Sulfolobus islandicus Rey15A, UniProt F0NBY5 1-59, Y56A)", "T7 sequence": "T1 sequence with A36D, Y56A", "assay": "BLI; BLI: 50 mM Tris-Cl pH 7.5, 100 mM NaCl, 1 mM EDTA, 0.02% Tween-20, 30 C; NMR: 20 mM potassium phosphate pH 7.0, 30 mM NaCl, 0.02% NaN3, 298 K", "details": "protein: recombinant; tags: untagged; label: 5'-biotin"}, "[8]": {"target": "T8, Sul7s T19G (Sulfolobus islandicus Rey15A, UniProt F0NBY5 1-59, T19G)", "T8 sequence": "T1 sequence with T19G, A36D", "assay": "BLI; BLI: 50 mM Tris-Cl pH 7.5, 100 mM NaCl, 1 mM EDTA, 0.02% Tween-20, 30 C; NMR: 20 mM potassium phosphate pH 7.0, 30 mM NaCl, 0.02% NaN3, 298 K", "details": "protein: recombinant; tags: untagged; label: 5'-biotin"}, "[9]": {"target": "T9, Sul7s W17A (Sulfolobus islandicus Rey15A, UniProt F0NBY5 1-59, W17A)", "T9 sequence": "T1 sequence with W17A, A36D", "assay": "BLI; BLI: 50 mM Tris-Cl pH 7.5, 100 mM NaCl, 1 mM EDTA, 0.02% Tween-20, 30 C; NMR: 20 mM potassium phosphate pH 7.0, 30 mM NaCl, 0.02% NaN3, 298 K", "details": "protein: recombinant; tags: untagged; label: 5'-biotin"}, "[10]": {"target": "T10, Sul7s K13A (Sulfolobus islandicus Rey15A, UniProt F0NBY5 1-59, K13A)", "T10 sequence": "T1 sequence with K13A, A36D", "assay": "BLI; BLI: 50 mM Tris-Cl pH 7.5, 100 mM NaCl, 1 mM EDTA, 0.02% Tween-20, 30 C; NMR: 20 mM potassium phosphate pH 7.0, 30 mM NaCl, 0.02% NaN3, 298 K", "details": "protein: recombinant; tags: untagged; label: 5'-biotin"}, "[11]": {"target": "T11, Sul7s K58A (Sulfolobus islandicus Rey15A, UniProt F0NBY5 1-59, K58A)", "T11 sequence": "T1 sequence with A36D, K58A", "assay": "BLI; BLI: 50 mM Tris-Cl pH 7.5, 100 mM NaCl, 1 mM EDTA, 0.02% Tween-20, 30 C; NMR: 20 mM potassium phosphate pH 7.0, 30 mM NaCl, 0.02% NaN3, 298 K", "details": "protein: recombinant; tags: untagged; label: 5'-biotin"}, "[12]": {"target": "T12, Sul7s K43A (Sulfolobus islandicus Rey15A, UniProt F0NBY5 1-59, K43A)", "T12 sequence": "T1 sequence with A36D, K43A", "assay": "BLI; BLI: 50 mM Tris-Cl pH 7.5, 100 mM NaCl, 1 mM EDTA, 0.02% Tween-20, 30 C; NMR: 20 mM potassium phosphate pH 7.0, 30 mM NaCl, 0.02% NaN3, 298 K", "details": "protein: recombinant; tags: untagged; label: 5'-biotin"}, "[13]": {"target": "T13, Sul7s R52A (Sulfolobus islandicus Rey15A, UniProt F0NBY5 1-59, R52A)", "T13 sequence": "T1 sequence with A36D, R52A", "assay": "BLI; barely detected up to 80 uM protein; BLI: 50 mM Tris-Cl pH 7.5, 100 mM NaCl, 1 mM EDTA, 0.02% Tween-20, 30 C; NMR: 20 mM potassium phosphate pH 7.0, 30 mM NaCl, 0.02% NaN3, 298 K", "details": "protein: recombinant; tags: untagged; label: 5'-biotin"}, "[14]": {"target": "T14, Sul7s R49A (Sulfolobus islandicus Rey15A, UniProt F0NBY5 1-59, R49A)", "T14 sequence": "T1 sequence with A36D, R49A", "assay": "BLI; barely detected up to 80 uM protein; BLI: 50 mM Tris-Cl pH 7.5, 100 mM NaCl, 1 mM EDTA, 0.02% Tween-20, 30 C; NMR: 20 mM potassium phosphate pH 7.0, 30 mM NaCl, 0.02% NaN3, 298 K", "details": "protein: recombinant; tags: untagged; label: 5'-biotin"}, "[15]": {"target": "T15, Sul7s R59A (Sulfolobus islandicus Rey15A, UniProt F0NBY5 1-59, R59A)", "T15 sequence": "T1 sequence with A36D, R59A", "assay": "BLI; barely detected up to 80 uM protein; BLI: 50 mM Tris-Cl pH 7.5, 100 mM NaCl, 1 mM EDTA, 0.02% Tween-20, 30 C; NMR: 20 mM potassium phosphate pH 7.0, 30 mM NaCl, 0.02% NaN3, 298 K", "details": "protein: recombinant; tags: untagged; label: 5'-biotin"}, "[16]": {"target": "T6, Sul7s", "assay": "NMR; 0.7 mM 15N/13C protein, HSQC titration; BLI: 50 mM Tris-Cl pH 7.5, 100 mM NaCl, 1 mM EDTA, 0.02% Tween-20, 30 C; NMR: 20 mM potassium phosphate pH 7.0, 30 mM NaCl, 0.02% NaN3, 298 K", "details": "protein: recombinant; tags: untagged"}}, "note": "Where a chain is given by its changes, count along the chain named.", "data": [{"binder": "TTTCTACCCTTTGGTGCTAATGCCCATACT (ssDNA)", "note": "[S30 (S30-F)]", "values": [{"measurement": "Kd", "setting": "[1]", "value": 88.3, "unit": "µM"}, {"measurement": "Kd", "setting": "[2]", "value": 4.67, "unit": "µM"}, {"measurement": "Kd", "setting": "[3]", "value": 6.01, "unit": "µM"}, {"measurement": "Kd", "setting": "[4]", "value": 8.92, "unit": "µM"}, {"measurement": "Kd", "setting": "[5]", "value": 1.21, "unit": "µM"}, {"measurement": "Kd", "setting": "[6]; label: 5'-biotin", "value": "5.62 ± 0.95", "unit": "µM"}, {"measurement": "Kd", "setting": "[7]", "value": 15.6, "unit": "µM"}, {"measurement": "Kd", "setting": "[8]", "value": 14.1, "unit": "µM"}, {"measurement": "Kd", "setting": "[9]", "value": 10.7, "unit": "µM"}, {"measurement": "Kd", "setting": "[10]", "value": 30.4, "unit": "µM"}, {"measurement": "Kd", "setting": "[11]", "value": 26.9, "unit": "µM"}, {"measurement": "Kd", "setting": "[12]", "value": 27.9, "unit": "µM"}, {"measurement": "binding result", "setting": "[13]", "value": "no binding"}, {"measurement": "binding result", "setting": "[14]", "value": "no binding"}, {"measurement": "binding result", "setting": "[15]", "value": "no binding"}]}, {"binder": "CTGGGGGCTGGGGGCTGGGGGCTGGGGGCT (ssDNA)", "note": "[G-rich30]", "values": [{"measurement": "Kd", "setting": "[6]; label: 5'-biotin", "value": "17.5 ± 4.8", "unit": "µM"}]}, {"binder": "GTAGTCAGACACAGTAGTTC (ssDNA)", "note": "[S20-F]", "values": [{"measurement": "binding result", "setting": "[16]", "value": "binds"}]}, {"binder": "B1", "values": [{"measurement": "Kd", "setting": "[6]; label: 5'-biotin on strand 1, blunt", "value": "76.8 ± 16.9", "unit": "µM"}]}, {"binder": "TTTTTTTTTTTTTTTTTTTTTTTTTTTTTT (ssDNA)", "note": "[T30]", "values": [{"measurement": "Kd", "setting": "[6]; label: 5'-biotin", "value": "1.19 ± 0.3", "unit": "µM"}]}]}
